Assays:
CD5L (CD5 antigen-like) [1] = biological target: T1, CD5L (CD5 antigen-like) (Homo sapiens, UniProt O43866 O43866:20-347); test: MST; TBS; 1 nM labeled CD5L; conditions: tags: His-tagged, Sino Biological 10791-H08H; fluorescently labeled for MST except with Cy5-S76.T; predicted hairpin
T1 sequence: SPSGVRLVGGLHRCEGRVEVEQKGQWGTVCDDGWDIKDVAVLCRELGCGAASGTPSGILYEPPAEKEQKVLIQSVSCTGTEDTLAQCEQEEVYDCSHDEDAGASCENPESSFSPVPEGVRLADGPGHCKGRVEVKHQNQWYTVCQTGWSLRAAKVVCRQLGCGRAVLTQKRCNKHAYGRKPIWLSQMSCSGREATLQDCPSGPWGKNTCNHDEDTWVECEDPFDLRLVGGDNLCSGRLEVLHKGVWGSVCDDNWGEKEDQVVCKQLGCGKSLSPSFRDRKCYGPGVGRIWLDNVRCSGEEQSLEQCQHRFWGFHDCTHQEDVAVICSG
Description: (§1) Regarding the three sequences of the second selection, S11 and S23 sequences were incubated with constant concentration (1 nM) of labeled CD5L purified recombinant protein (Sino Biological Inc., Beijing, China) or labeled VEGF scrambled protein used as negative control (R&D System). S11 and S23 were diluted 1:1 (from 15000 to 0.05 nM) in binding buffer (pH 7.4, 1 mM MgCl2, 0.1% Tween20). S76 sequence was diluted 1:1 in Tris-buffered saline (TBS) from 1000 nM to 0.03 nM. S76.T was labeled with Cy5 and the concentration was kept constant at 2 nM. CD5L was diluted from 2000 nM to 0.06 nM in 50 mM Tris-HCl pH 7.8, 150 mM NaCl, 0.05% Tween20. 5 μl of each dilution step were mixed with 5 μl of the labeled CD5L or VEGF. The final reaction mixture contained a respective amount of aptamer sequences and constant 1 nM labeled CD5L or VEGF.

CD5L (CD5 antigen-like) [2] = biological target: T1, CD5L (CD5 antigen-like); test: MST; pH 7.4, 1 mM MgCl2, 0.1% Tween20; conditions: tags: His-tagged, Sino Biological 10791-H08H; fluorescently labeled for MST except with Cy5-S76.T; predicted hairpin
Description: as §1

CD5L (CD5 antigen-like) [3] = biological target: T1, CD5L (CD5 antigen-like); test: MST; 50 mM Tris-HCl pH 7.8, 150 mM NaCl, 10 mM MgCl2, 0.05% Tween-20; 2 nM Cy5-S76.T; conditions: tags: His-tagged, Sino Biological 10791-H08H; fluorescently labeled for MST except with Cy5-S76.T; label: Cy5 (MST); hairpin
Description: For Cy5 labeled S76.T, a serial dilution of CD5L was prepared in the buffer composed by 50 mM Tris-HCl pH7.8, 150 mM NaCl, 10 mM MgCl2, 0.05 Tween-20. The highest concentration of CD5L was 2000 nM and the lowest 0.06 nM. 4 μl of each dilution step were mixed with 4 μl of the Cy5 labeled S76 truncated (4 nM stock). The final reaction mixture, which was filled in standard capillaries, contained a respective amount of CD5L (max. conc. 1000 nM, min conc. 0.03 nM) and constant 2 nM labeled S76 truncated MST measurement was obtained using Monolith NT.115 (NanoTemper Technologies GmbH, Munich, Germany) with standard capillaries. KD was determined as described by (Stoltenburg et al., 2015).

CD5L (CD5 antigen-like) [4] = biological target: T1, CD5L (CD5 antigen-like); test: MST; PBS pH 7.4, 1 mM MgCl2, 0.05% Tween20; conditions: tags: His-tagged, Sino Biological 10791-H08H; fluorescently labeled for MST except with Cy5-S76.T; three predicted hairpins followed by single-strand ends
Description: A serial dilution of S5, S47, S63 and S72 was prepared in specific buffer composed by PBS pH 7.4, 1 mM of MgCl2 and 0.05% Tween20. The highest concentration used was 18000 nM and the lowest 0.54 nM. 4 μl of each dilution step were mixed with 4 μl of the labeled molecule CD5L purified recombinant protein (Sino Biological Inc., Beijing, China) or VEGF scrambled protein used as negative control (R&D System) (constant concentration of 12.5 nM).

B1: S76 (ssRNA)
RNA: AGACAAGAAUAAACGCUCAAUUAUCGGAGAGGCCGAACAGAUACUUCGUUAGACAGGUUGCAGCGUUCGACAGGAGGCUCACAACAGGC
modifications: 2'-F pyrimidines
CD5L (CD5 antigen-like) [1]
  Kd: 2.2 nM

B2: S11 (ssRNA)
RNA: AGACAAGAAUAAACGCUCAAUUAUCGGAGAGGCCGAACAGAUACUUCGUUAGACACCUUGCAGCGUUCGACAGGAGGC
modifications: 2'-F pyrimidines
CD5L (CD5 antigen-like) [2]
  Kd: 59.2 nM

B3: S23 (ssRNA)
RNA: AGACAAGAAUAAACGCUCAAAAAGAGAGAAGGAUAAGAACCAUCAAAAAGAGAGAGCAGAGCCAGAUUCGACAGGAGGCUCACAACAGGC
modifications: 2'-F pyrimidines
CD5L (CD5 antigen-like) [2]
  Kd: 92.1 nM

## AGGUUGCAGCGUUCGACAGGAGGCUCACAACAG (ssRNA, 2'-F pyrimidines) [S76.T]
CD5L (CD5 antigen-like) [3]
  Kd: 10.1 nM

B4: S5 (ssRNA)
RNA: AGACAAGAAUAAACGCUCAAGCGAAGGUGUGACCACAAACCACAUAAAGGCAAGGUCGCGCCGCGUUCGACAGGAGGCUCACAACAGGC
modifications: 2'-F pyrimidines
CD5L (CD5 antigen-like) [4]
  Kd: 556 nM
